# Results published in the supplement of paper PMC10567573.
# B1: ZNF511 (parent)
# chain: AAPFRFVARPVRFPREHQFFEDGD
# B2: NEK8 (parent)
# chain: VTIKHVACGDFFTACLTDRGIIMT
# Variants of: B1
# Test: protein stability index of a GFP-peptide fusion (GPS, HEK-293T) (PSI 1-6); higher = more stable
# Conditions: c terminus: a fixed tail appended
# 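Further: lentivirally expressed fusions sorted by FACS into six bins by GFP to DsRed ratio, PSI derived from sequencing read proportions per bin multiplied by bin number.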
row,Variant,protein stability index
1,R5F,2.18
2,R5C,3.05
3,R5M,3.25
4,R5D,4.8
5,R5W,1.89
6,R5T,4.17
7,R5A,3.53
8,R5N,4.22
9,R5I,2.67
10,R5E,4.26
11,R5S,4.16
12,R5P,3.92
13,R5G,3.68
14,R5Q,4.61
15,R5K,3.91
16,R5Y,2.15
17,R5L,2.63
18,R5V,3.58
19,R5H,3.3
20,F4A,4.66
21,F4Q,4.68
22,F4G,4.57

row,Variant,protein stability index
1,F4I,3.9
2,F4W,2.48
3,F4D,4.77
4,F4L,3.65
5,F4V,4.24
6,F4K,4.41
7,F4P,4.84
8,F4R,3.94
9,F4S,4.53
10,F4Y,3.68
11,F4N,4.37
12,F4H,4.58
13,F4T,4.36
14,F4E,4.46
15,F4C,3.4
16,F4M,3.34
17,F6T,4.03
18,F6H,4.18
19,F6S,4.26
20,F6I,3.38
21,F6K,4.36
22,F6L,3.47

row,Variant,protein stability index
1,F6N,4.55
2,F6M,4.13
3,F6Q,4.94
4,F6D,4.19
5,F6G,4.43
6,F6A,4.3
7,F6P,4.83
8,F6R,4.03
9,F6C,2.81
10,F6E,4.45
11,A2F,1.85
12,A2T,2.28
13,A2P,2.32
14,A2Q,2.1
15,A2E,2.8
16,A2M,2.11
17,A2L,1.32
18,A2K,2.01
19,A2V,1.53
20,A2H,2.48
21,A2W,1.47
22,A2I,2.69

row,Variant,protein stability index
1,A2D,3.25
2,A2G,2.36
3,A2R,1.93
4,A2C,2.05
5,A2Y,2.42
6,A2S,3.91
7,A2N,3.12
8,A1N,2.51
9,A1T,1.22
10,A1I,1.82
11,A1K,2.02
12,A1C,2.39
13,A1S,2.07
14,A1Y,4.23
15,A1W,2.31
16,A1F,3.42
17,A1M,3.08
18,A1D,2.2
19,A1Q,2.61
20,A1H,1.63
21,A1R,1.93
22,A1E,2.04

row,Variant,protein stability index
1,A1P,2.29
2,P3Q,2.26
3,P3G,1.66
4,P3F,1.53
5,P3K,1.81
6,P3R,2.65
7,P3C,1.36
8,P3Y,2.47
9,P3L,1.93
10,P3N,2.04
11,P3I,1.34
12,P3H,2.59
13,P3E,1.61
14,P3T,2.1
15,P3W,3.21
16,P3D,1.06
17,P3V,1.53
18,P3M,1.62
19,P3A,2.37
20,P3S,2.76

# Variants of: B2
# Test: as above
# Conditions: c terminus: a fixed tail appended
row,Variant,protein stability index
1,A14T,3.17
2,A14P,2.68
3,A14Q,1.12
4,A14G,2.51
5,A14I,2.87
6,A14L,2.31
7,A14M,3.53
8,A14E,1.47
9,A14H,1.86
10,A14V,2.55
11,A14R,2.34
12,A14D,1.98
13,A14W,2.01
14,A14C,2.65
15,A14Y,2.65
16,A14K,1.9
17,T24A,2.87
18,T24Y,2.3
19,T24K,2.93
20,T24L,4.18
21,T24I,3.19
22,T24V,2.81
23,T24R,2.45
24,T24N,2.41
25,T24C,2.87
26,T24H,1.84

row,Variant,protein stability index
1,T24G,3.47
2,T24F,2.64
3,T24D,3.14
4,T24E,3.11
5,T24S,2.33
6,F12M,2.61
7,F12N,2.67
8,F12Y,2.02
9,F12S,3.05
10,F12K,1.81
11,F12I,3.98
12,F12C,1.53
13,F12R,2.21
14,F12E,1.72
15,F12T,3.71
16,F12P,1.8
17,F12D,2.2
18,F12W,2.6
19,F12G,2.17
20,F12V,2.77
21,F12L,1.79
22,R19C,2.48
23,R19N,3.56
24,R19K,3.78
25,R19W,3.11
26,R19G,3.25

row,Variant,protein stability index
1,R19V,2.56
2,R19H,1.81
3,R19D,3.29
4,R19M,2.32
5,R19Y,2.32
6,R19I,2.96
7,R19A,2.01
8,R19T,2.77
9,R19E,3.52
10,R19P,4.49
11,R19S,2.97
12,R19Q,1.92
13,M23T,1.89
14,M23D,3.49
15,M23H,2.61
16,M23P,2.9
17,M23Y,3.28
18,M23S,2.56
19,M23L,3.85
20,M23R,1.41
21,M23Q,1.47
22,M23K,1.91
23,M23I,2.77
24,M23G,3.62
25,M23V,2.73
26,M23E,2.81

row,Variant,protein stability index
1,M23A,1.6
2,M23C,2.67
3,M23N,2.3
4,F11S,2.05
5,F11C,1.91
6,F11A,2.49
7,F11P,3.05
8,F11E,2.9
9,F11T,2.82
10,F11N,2.85
11,F11W,4.01
12,F11G,1.8
13,F11H,1.88
14,F11D,1.46
15,F11Y,2.81
16,F11Q,3.07
17,F11I,4.45
18,F11M,3.07
19,F11V,2.76
20,F11L,2.23
21,F11K,2.13
22,C15T,3.74
23,C15E,3.04
24,C15Y,2.42
25,C15I,3.26
26,C15M,4.25

row,Variant,protein stability index
1,C15K,2.58
2,C15H,1.61
3,C15D,3.14
4,C15F,3.35
5,C15R,2.91
6,C15S,3.9
7,C15Q,2.59
8,C15N,4.23
9,C15W,3.09
10,C15V,2.5
11,C15L,2.37
12,L16D,1.91
13,L16H,2.88
14,L16R,2.33
15,L16A,4.14
16,L16S,3.85
17,L16C,2.43
18,L16M,2.15
19,L16Q,3.06
20,L16Y,2.13
21,L16P,2.59
22,L16I,2.3
23,L16T,1.76
24,L16F,3.61
25,L16E,1.89
26,L16K,3.12

row,Variant,protein stability index
1,T13H,3.07
2,T13I,1.31
3,T13S,1.28
4,T13Y,3.95
5,T13V,2.64
6,T13P,3.32
7,T13D,3.61
8,T13F,2.81
9,T13C,2.13
10,T13M,2.39
11,T13Q,2.47
12,T13N,1.86
13,T13K,3.17
14,T13L,2.11
15,T17R,3.53
16,T17V,3.2
17,T17N,4.51
18,T17Q,3.69
19,T17C,2.27
20,T17D,2.27
21,T17S,3.16
22,T17M,3.48
23,T17P,2.64
24,T17I,4.6
25,T17L,3.17
26,T17H,3.72

row,Variant,protein stability index
1,T17F,3.49
2,T17G,1.94
3,T17K,4.32
4,D10T,2.71
5,D10W,2.4
6,D10V,2.91
7,D10Y,2.44
8,D18N,3.07
9,D18Y,3.05
10,D18S,4.67
11,D18A,4.82
12,D18P,3.31
13,D18C,2.02
14,D18V,3.85
15,D18F,4.13
16,D18G,3.08
17,D18R,5.42
18,D18L,2.09
19,D18K,4.11
20,D18W,3.08
21,D18T,2.72
22,I22N,3.67
23,I22E,3.75
24,I22P,2.67
25,I22F,4.9
26,I22A,2.38

row,Variant,protein stability index
1,I22D,3.93
2,I22W,4.62
3,I22Q,3.88
4,I22G,2.98
5,I22K,3.62
6,I22V,2.46
7,I22C,3.72
8,I22L,4.46
9,I22Y,2.39
10,G20T,1.48
11,G20M,3.22
12,G20F,2.21
13,G20N,2.75
14,G20V,1.72
15,G20S,2.84
16,G20C,2.94
17,G20I,2.82
18,G20A,3.45
19,G20P,3.42
20,G20Y,2.3
21,G20D,2.04
22,G20L,2.91
23,G20W,2.57
24,G20K,2.35
25,G20Q,2.06
26,G20H,3.22

row,Variant,protein stability index
1,I21M,2.95
2,I21T,2.48
3,I21L,2.25
4,I21H,2.36
5,I21E,3.51
6,I21G,3.21
7,I21C,2.7
8,I21A,1.79
9,I21Q,2.92
10,I21S,2.5
11,I21K,2.78
12,I21R,2.49
13,I21F,2.9
14,I21D,2.13
15,I21V,3.14
16,I21P,2.25
17,I21W,2.31
18,I21N,2.87
